Consider 1 molecule from patent publication US20050060764A1, “Mouse model for bone metabolism” (priority 2003, published 2005).

The subject of experiment [1] is RANKL mRNA. The experiment is described as follows: RANKL mRNA expression in primary mouse osteoblast cells after PTH treatment: time course (Table 7). Conditions: 10 nM PTH; for RANKL mRNA % control: primary osteoblast cells. It counts as cell-based. On the procedure:
Primary mouse osteoblasts were prepared from calvaria of neonatal mice purchased from Charles River Laboratories. […] Cells were not passaged. Cells were seeded onto 6-well plates (Falcon-Primaria #353846) at a density of 50,000 cells/well for use in antisense oligonucleotide transfection.
In a further embodiment of this invention, the effect of PTH treatment on the expression of RANKL was determined in primary osteoblast cells isolated from mice skull caps. Primary osteoblastic cells were treated for 24 hours with either saline or the transfection reagent FuGENE 6 (Roche Applied Science, Indianapolis, Ind.). […] The RNA was then harvested and the expression levels of RANKL mRNA were measured by the methods described herein. The data are expressed as percent increase over untreated control cells.

For experiment [2], the system named is RANKL mRNA. Briefly: Short-term bone resorption model: RANKL mRNA expression in proximal tibia after PTH infusion (Table 6). The experiment is classed as in vivo, mouse. Conditions: mice infused with PTH 1 ug/100 g/6 hr. The text has this: Probes and primers to mouse RANKL were designed to hybridize to a mouse RANKL sequence, using published sequence information (GenBank accession number AF013170.1, incorporated herein as SEQ ID NO:ll). For mouse RANKL the PCR primers were: • forward primer: […] (SEQ ID NO:12) • reverse primer: […] (SEQ ID NO: 13) and • the PCR probe was: FAM-[…]-TAMRA (SEQ ID NO: 14) where FAM is the fluorescent reporter dye and TAMRA is the quencher dye. For mouse GAPDH the PCR primers were: • forward primer: […](SEQ ID NO:15) • reverse primer: […](SEQ ID NO:16) and the • PCR probe was: 5′ JOE-[…]-TAMRA 3′ (SEQ ID NO: 17) where JOE is the fluorescent reporter dye and TAMRA is the quencher dye.
Parathyroidectomized rats are a well-established, short-term model of bone resorption and are useful in the investigation of antiresorptive agents. However, it is difficult to surgically remove only the parathyroid gland of rodents, and the inadvertent removal of the adjacent thyroid gland often has effects on thyroid hormone levels that introduce into the experiment an undesirable level of variability. Continuous infusion of parathyroid hormone (PTH) into intact, young (6-9 weeks old) mice reproduces the short-term bone resorption activity seen in parathyroidectomized rodents and is thus a useful, non-invasive model for the study of antiresorptive agents. The PTH infusion activates bone osteoclasts and causes them to degrade bone matrix, with a resulting rise in serum calcium. In accordance with the present invention, a short-term mouse model of bone resorption was developed and used to evaluate the effects of PTH infusion on serum calcium concentration and RANKL mRNA levels.
Female, Swiss-Webster mice (5-8 weeks old) were placed on a low calcium diet and implanted with mini-pumps delivering PTH continuously. The pumps were calibrated to deliver 1 ug PTH per 100 g bodyweight per 6 hour time period (1 ug/100 g/6 hr). […] The data are expressed as percent increase relative to no PTH treatment.

B1: parathyroid hormone (peptide, UniProt P01270 32-115, looked up)
Parathyroid hormone: SVSEIQLMHNLGKHLNSMERVEWLRKKLQDVHNFVALGAPLAPRDAGSQRPRKKEDNVLVESHEKSLGEADKADVNVLTKAKSQ
notes: parathyroid hormone infused to induce bone resorption in the mouse model
With B1, the “RANKL mRNA % control” value with RANKL mRNA [1] (0.5 hours, FuGENE 6 treatment) worked out at 185 % control; with RANKL mRNA [1] (0.5 hours, saline treatment) it was 168 % control; with RANKL mRNA [1] (1 hour, FuGENE 6 treatment), 750 % control; in the experiment on RANKL mRNA [1] (1 hour, saline treatment), 700 % control; in the experiment on RANKL mRNA [1] (2 hours, FuGENE 6 treatment), 1275 % control; in the experiment on RANKL mRNA [1] (2 hours, saline treatment), 908 % control. Besides, the “RANKL mRNA % control” value came to 467 % control in the experiment with RANKL mRNA [1] (4 hours, FuGENE 6 treatment); 383 % control in the experiment on RANKL mRNA [1] (4 hours, saline treatment); 340 % control in the experiment on RANKL mRNA [1] (6 hours, FuGENE 6 treatment); 326 % control in the experiment with RANKL mRNA [1] (6 hours, saline treatment); 242 % control in the experiment on RANKL mRNA [2] (12 hours); 117 % control with RANKL mRNA [2] (18 hours). Besides, the “RANKL mRNA % control” value in the experiment on RANKL mRNA [2] (24 hours (4 ug/100 g)) is reported as 205 % control. Further, the “RANKL mRNA expression in response to PTH” value in the experiment on RANKL mRNA [1] (primary mouse osteoblast cells, in the presence of saline or FuGENE 6) was “upregulated in response to PTH”.
